Measurements from patent US20170327597A1.

Target: Z-domain (an engineered analogue of the IgG-binding domain of protein A)
Test: isothermal titration calorimetry, Z-domain injected into IgG

mmIgG2b-P307T-Q309L-K409R (antibody)
fold tighter binding than mmIgG2b-F405L: 5 fold
